B1: MKK6 D-site peptide / p38-alpha (MAPK14) L195A, full length (parent complex)
chain 1: SQSKGKKRNPGLKIPKEAFEQP
chain 2: MSQERPTFYRQELNKTVWEVPERYQNLSPVGSGAYGSVCAAFDTKTGHRVAVKKLSRPFQSIIHAKRTYRELRLLKHMKHENVIGLLDVFTPARSLEEFNDVYLVTHLMGADLNNIVKCQKLTDDHVQFLIYQILRGLKYIHSADIIHRDLKPSNLAVNEDCELKILDFGLARHTDDEMTGYVATRWYRAPEIMANWMHYNQTVDIWSVGCIMAELLTGRTLFPGTDHIDQLKLILRLVGTPGAELLKKISSESARNYIQSLAQMPKMNFANVFIGANPLAVDLLEKMLVLDSDKRITAAQALAHAYFAQYHDPDDEPVAEPYDQSFESRDFLIDEWKSLTYDEVISFVPPPLDQEEMES

The variants in this assay derive from B1.
With chain 1 I14D, the screen value is -0.97 Z-score of the enrichment rate within one screen of 711 sequences.

Take chain 1 I14T: the screen value was -1.3 Z-score of the enrichment rate within one screen of 711 sequences.

As to chain 1 I14L, the screen value was 3.12 Z-score of the enrichment rate within one screen of 711 sequences.

Turning to chain 1 I14H, the screen value was -0.748 Z-score of the enrichment rate within one screen of 711 sequences.

In the case of chain 1 I14K, the screen value was -0.966 Z-score of the enrichment rate within one screen of 711 sequences.

Consider chain 1 I14P, for which the screen value is -0.823 Z-score of the enrichment rate within one screen of 711 sequences.

Consider chain 1 I14W, for which the screen value is -0.82 Z-score of the enrichment rate within one screen of 711 sequences.

For chain 1 I14N, the screen value was -0.906 Z-score of the enrichment rate within one screen of 711 sequences.

Take chain 1 P15C: the screen value was 4.38 Z-score of the enrichment rate within one screen of 711 sequences.

For chain 1 P15T, the screen value is 1.24 Z-score of the enrichment rate within one screen of 711 sequences.

On to chain 1 P15K, for which the screen value was 1.65 Z-score of the enrichment rate within one screen of 711 sequences.

Turning to chain 1 P15Y, the screen value is 0.93 Z-score of the enrichment rate within one screen of 711 sequences.

As for chain 1 P15E, the screen value was 0.418 Z-score of the enrichment rate within one screen of 711 sequences.

As for chain 1 P15G, the screen value was 0.848 Z-score of the enrichment rate within one screen of 711 sequences.

Turning to chain 1 P15R, the screen value is 1.68 Z-score of the enrichment rate within one screen of 711 sequences.

In the case of chain 1 N9S, the screen value was 0.752 Z-score of the enrichment rate within one screen of 711 sequences.

chain 1 N9E: the screen value is -0.389 Z-score of the enrichment rate within one screen of 711 sequences.

As to chain 1 N9K, the screen value is 1.98 Z-score of the enrichment rate within one screen of 711 sequences.

Consider chain 1 N9P, for which the screen value was 1.77 Z-score of the enrichment rate within one screen of 711 sequences.

In the case of chain 1 N9T, the screen value was 0.467 Z-score of the enrichment rate within one screen of 711 sequences.

chain 1 N9C: the screen value is 1.38 Z-score of the enrichment rate within one screen of 711 sequences.

For the variant chain 1 N9A, the screen value was 1.56 Z-score of the enrichment rate within one screen of 711 sequences.

For the variant chain 1 I14A, chain 1 P15A, the screen value is -1.12 Z-score of the enrichment rate within one screen of 711 sequences.

chain 1 G11A, chain 1 P15A: the screen value was 1.79 Z-score of the enrichment rate within one screen of 711 sequences.

Take chain 1 K4A, chain 1 K7A: the screen value was -0.395 Z-score of the enrichment rate within one screen of 711 sequences.

For the variant chain 1 K6A, chain 1 L12A, the screen value was -0.715 Z-score of the enrichment rate within one screen of 711 sequences.

On to chain 1 K13S, for which the screen value was -0.0532 Z-score of the enrichment rate within one screen of 711 sequences.

Consider chain 1 K13N, for which the screen value is -0.0907 Z-score of the enrichment rate within one screen of 711 sequences.

Consider chain 1 K13W, for which the screen value was 0.592 Z-score of the enrichment rate within one screen of 711 sequences.

With chain 1 K13V, the screen value is 0.144 Z-score of the enrichment rate within one screen of 711 sequences.

With chain 1 K13P, the screen value is -0.836 Z-score of the enrichment rate within one screen of 711 sequences.

As to chain 1 K13I, the screen value was 0.477 Z-score of the enrichment rate within one screen of 711 sequences.

With chain 1 K13D, the screen value is -0.943 Z-score of the enrichment rate within one screen of 711 sequences.

Turning to chain 1 K13G, the screen value is -1.05 Z-score of the enrichment rate within one screen of 711 sequences.

For chain 1 K13T, the screen value was 0.352 Z-score of the enrichment rate within one screen of 711 sequences.

As to chain 1 K13F, the screen value was 0.119 Z-score of the enrichment rate within one screen of 711 sequences.

For chain 1 K13L, the screen value was -0.274 Z-score of the enrichment rate within one screen of 711 sequences.

For chain 1 K13R, the screen value is 1.63 Z-score of the enrichment rate within one screen of 711 sequences.

Consider chain 1 K13A, for which the screen value is -0.412 Z-score of the enrichment rate within one screen of 711 sequences.

Consider chain 1 K13H, for which the screen value was -0.111 Z-score of the enrichment rate within one screen of 711 sequences.

Regarding chain 1 R8A, chain 1 I14A, the screen value was -0.878 Z-score of the enrichment rate within one screen of 711 sequences.

Take chain 1 K7E: the screen value is -0.535 Z-score of the enrichment rate within one screen of 711 sequences.

As to chain 1 K7G, the screen value is 1.17 Z-score of the enrichment rate within one screen of 711 sequences.

Regarding chain 1 K7L, the screen value is 1.83 Z-score of the enrichment rate within one screen of 711 sequences.

For the variant chain 1 K7D, the screen value was -0.807 Z-score of the enrichment rate within one screen of 711 sequences.

For the variant chain 1 K7S, the screen value is 0.9 Z-score of the enrichment rate within one screen of 711 sequences.

On to chain 1 K16L, for which the screen value is 1.28 Z-score of the enrichment rate within one screen of 711 sequences.

Turning to chain 1 K16P, the screen value was 0.798 Z-score of the enrichment rate within one screen of 711 sequences.

Consider chain 1 K16G, for which the screen value is -0.443 Z-score of the enrichment rate within one screen of 711 sequences.

In the case of chain 1 K16T, the screen value is 0.151 Z-score of the enrichment rate within one screen of 711 sequences.

Consider chain 1 K16Q, for which the screen value is 0.247 Z-score of the enrichment rate within one screen of 711 sequences.

Turning to chain 1 K16A, the screen value was 0.957 Z-score of the enrichment rate within one screen of 711 sequences.

With chain 1 S3A, chain 1 L12A, the screen value is -1.11 Z-score of the enrichment rate within one screen of 711 sequences.

For the variant chain 1 S3A, chain 1 K4A, the screen value was 0.582 Z-score of the enrichment rate within one screen of 711 sequences.

In the case of chain 1 K6A, chain 1 P10A, the screen value is -0.354 Z-score of the enrichment rate within one screen of 711 sequences.

Take chain 1 K7A, chain 1 K16A: the screen value is 0.0296 Z-score of the enrichment rate within one screen of 711 sequences.

As for chain 1 K6A, chain 1 I14A, the screen value is -1.08 Z-score of the enrichment rate within one screen of 711 sequences.

Take chain 1 G5A, chain 1 N9A: the screen value was 1.1 Z-score of the enrichment rate within one screen of 711 sequences.

Consider chain 1 G11F, for which the screen value is 1.14 Z-score of the enrichment rate within one screen of 711 sequences.

Turning to chain 1 G11D, the screen value was 0.0949 Z-score of the enrichment rate within one screen of 711 sequences.

As to chain 1 G11K, the screen value is 2.23 Z-score of the enrichment rate within one screen of 711 sequences.

Take chain 1 G11S: the screen value was 0.683 Z-score of the enrichment rate within one screen of 711 sequences.

With chain 1 G11V, the screen value was 0.807 Z-score of the enrichment rate within one screen of 711 sequences.

As to chain 1 G11Y, the screen value was 1.26 Z-score of the enrichment rate within one screen of 711 sequences.

On to chain 1 K6A, chain 1 R8A, for which the screen value was -0.524 Z-score of the enrichment rate within one screen of 711 sequences.

Take chain 1 R8Y: the screen value was 0.157 Z-score of the enrichment rate within one screen of 711 sequences.

In the case of chain 1 R8I, the screen value is 0.378 Z-score of the enrichment rate within one screen of 711 sequences.

In the case of chain 1 R8N, the screen value is 0.126 Z-score of the enrichment rate within one screen of 711 sequences.

Regarding chain 1 R8E, the screen value was -0.5 Z-score of the enrichment rate within one screen of 711 sequences.

As for chain 1 R8S, the screen value is 0.135 Z-score of the enrichment rate within one screen of 711 sequences.

As for chain 1 R8L, the screen value was 0.23 Z-score of the enrichment rate within one screen of 711 sequences.

In the case of chain 1 K13A, chain 1 K16A, the screen value is -0.809 Z-score of the enrichment rate within one screen of 711 sequences.

For the variant chain 1 G5S, the screen value was 1.65 Z-score of the enrichment rate within one screen of 711 sequences.

Turning to chain 1 G5H, the screen value was 1.94 Z-score of the enrichment rate within one screen of 711 sequences.

Turning to chain 1 G5T, the screen value was 1.67 Z-score of the enrichment rate within one screen of 711 sequences.
